Assay results taken from paper PMC4841080.

Columns and labels:
Details in all cases: glycan lost; control: wild type
[1] = Western blot of cell lysates
[2] = Western blot of Ni-NTA-concentrated conditioned medium
[3] = Immunofluorescence co-staining with Golgi marker GRASP65

B1: R-spondin1 (RSPO1): N137Q (protein)
parent chain: MRLGLCVVALVLSWTHLTISSRGIKGKRQRRISAEGSQACAKGCELCSEVNGCLKCSPKLFILLERNDIRQVGVCLPSCPPGYFDARNPDMNKCIKCKIEHCEACFSHNFCTKCKEGLYLHKGRCYPACPEGSSAANGTMECSSPAQCEMSEWSPWGPCSKKQQLCGFRRGSEERTRRVLHAPVGDHAACSDTKETRRCTVRRVPCPEGQKRRKGGQGRRENANRNLARKESKEAGAGSRRRKGQQQQQQQGTVGPLTSAGPA
- expression_or_secretion [1]: increases
- expression_or_secretion [2]: increases
- localisation_or_trafficking [3]: no change
